# Measured values from IntAct's records for PubMed 23236153.
# B1: Pre-mRNA-splicing factor CWC22 homolog (Homo sapiens), Q9HCG8 (parent)
# chain: MKSSVAQIKPSSGHDRRENLNSYQRNSSPEDRYEEQERSPRDRDYFDYSRSDYEHSRRGRSYDSSMESRNRDREKRRERERDTDRKRSRKSPSPGRRNPETSVTQSSSAQDEPATKKKKDELDPLLTRTGGAYIPPAKLRMMQEQITDKNSLAYQRMSWEALKKSINGLINKVNISNISIIIQELLQENIVRGRGLLSRSVLQAQSASPIFTHVYAALVAIINSKFPQIGELILKRLILNFRKGYRRNDKQLCLTASKFVAHLINQNVAHEVLCLEMLTLLLERPTDDSVEVAIGFLKECGLKLTQVSPRGINAIFERLRNILHESEIDKRVQYMIEVMFAVRKDGFKDHPIILEGLDLVEEDDQFTHMLPLEDDYNPEDVLNVFKMDPNFMENEEKYKAIKKEILDEGDTDSNTDQDAGSSEEDEEEEEEEGEEDEEGQKVTIHDKTEINLVSFRRTIYLAIQSSLDFEECAHKLLKMEFPESQTKELCNMILDCCAQQRTYEKFFGLLAGRFCMLKKEYMESFEGIFKEQYDTIHRLETNKLRNVAKMFAHLLYTDSLPWSVLECIKLSEETTTSSSRIFVKIFFQELCEYMGLPKLNARLKDETLQPFFEGLLPRDNPRNTRFAINFFTSIGLGGLTDELREHLKNTPKVIVAQKPDVEQNKSSPSSSSSASSSSESDSSDSDSDSSDSSSESSSEESDSSSISSHSSASANDVRKKGHGKTRSKEVDKLIRNQQTNDRKQKERRQEHGHQETRTERERRSEKHRDQNSSGSNWRDPITKYTSDKDVPSERNNYSRVANDRDQEMHIDLENKHGDPKKKRGERRNSFSENEKHTHRIKDSENFRRKDRSKSKEMNRKHSGSRSDEDRYQNGAERRWEKSSRYSEQSRESKKNQDRRREKSPAKQK
# Variants of: B1
# Details: with if4a3_human EIF4A3, P38919
# Sequence of if4a3_human EIF4A3, P38919 (P38919 whole entry): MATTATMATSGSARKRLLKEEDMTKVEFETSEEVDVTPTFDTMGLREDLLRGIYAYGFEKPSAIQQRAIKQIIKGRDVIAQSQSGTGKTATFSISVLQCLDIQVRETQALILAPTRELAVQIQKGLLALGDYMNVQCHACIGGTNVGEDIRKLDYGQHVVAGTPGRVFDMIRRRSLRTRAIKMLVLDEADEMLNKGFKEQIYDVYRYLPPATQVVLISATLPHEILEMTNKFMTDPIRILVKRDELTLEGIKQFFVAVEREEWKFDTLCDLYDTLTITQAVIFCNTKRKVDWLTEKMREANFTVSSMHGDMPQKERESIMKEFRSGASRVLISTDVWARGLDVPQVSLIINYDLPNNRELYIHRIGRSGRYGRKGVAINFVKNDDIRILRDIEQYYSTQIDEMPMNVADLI
row,effect of a mutation on the interaction,Variant
1,disrupting interaction strength,N171A;K172A;N174A
2,decreasing interaction strength,R331A;Y334A
